Measurements reported in article PMC9256704, “Oncogenic TRIB2 interacts with and regulates PKM2 to promote aerobic glycolysis and lung cancer cell procession” (Cell Death Discovery, 2022).

Target: T1, PKM2 (ab89364, Abcam) (human, UniProt P14618 1-531)
T1 construct: human M2 isoform of pyruvate kinase (PKM2), bought recombinant protein; see the vendor's sheet for ab89364; also called PKM2 protein; source: bought: Abcam (ab89364)
Experiment: BLI; biotinylated TRIB2 loaded onto SSA biosensors, blocked with biocytin (5 μg/ml) for 60 s; PKM2 diluted in PBS as analyte; Octet data analysis software
Details: both partners purified

T1 sequence (P14618 whole entry, canonical isoform): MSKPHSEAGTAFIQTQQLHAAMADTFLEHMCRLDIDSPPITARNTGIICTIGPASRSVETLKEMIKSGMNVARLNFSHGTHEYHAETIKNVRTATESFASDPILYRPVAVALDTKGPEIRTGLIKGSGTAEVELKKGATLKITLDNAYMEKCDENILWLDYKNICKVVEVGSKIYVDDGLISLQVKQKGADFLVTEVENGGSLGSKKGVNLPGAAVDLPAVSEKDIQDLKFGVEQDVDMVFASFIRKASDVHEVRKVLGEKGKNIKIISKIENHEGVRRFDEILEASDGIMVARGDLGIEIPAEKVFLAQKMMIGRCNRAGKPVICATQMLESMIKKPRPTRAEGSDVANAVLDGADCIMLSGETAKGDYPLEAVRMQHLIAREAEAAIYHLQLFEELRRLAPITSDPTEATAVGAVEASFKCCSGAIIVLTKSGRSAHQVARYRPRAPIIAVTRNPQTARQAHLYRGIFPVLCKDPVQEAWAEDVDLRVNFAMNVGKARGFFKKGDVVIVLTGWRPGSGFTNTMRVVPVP

B1: recombinant TRIB2 protein (TP301210, OriGene), biotinylated (natural protein, human, UniProt Q92519 1-343, looked up)
chain: MNIHRSTPITIARYGRSRNKTQDFEELSSIRSAEPSQSFSPNLGSPSPPETPNLSHCVSCIGKYLLLEPLEGDHVFRAVHLHSGEELVCKVFDISCYQESLAPCFCLSAHSNINQITEIILGETKAYVFFERSYGDMHSFVRTCKKLREEEAARLFYQIASAVAHCHDGGLVLRDLKLRKFIFKDEERTRVKLESLEDAYILRGDDDSLSDKHGCPAYVSPEILNTSGSYSGKAADVWSLGVMLYTMLVGRYPFHDIEPSSLFSKIRRGQFNIPETLSPKAKCLIRSILRREPSERLTSQEILDHPWFSTDFSVSNSAYGAKEVSDQLVPDVNMEENLDPFFN
modifications: biotinylated
notes: human Tribbles homologue 2 (TRIB2), bought recombinant protein; also called human TRIB2; source: bought: OriGene (TP301210)
- Kd: 7.44 nM
